In paper PMC2730839:

Substrate: O=C(O)C(=O)c1ccccc1
Assay: steady-state kinetics
Type: biochemical, Pseudomonas putida
Conditions: thiamin diphosphate (ThDP), Mg2+ active site

B1: benzoylformate decarboxylase (BFDC) (Pseudomonas putida) (protein)
chain: MASVHGTTYELLRRQGIDTVFGNPGSNELPFLKDFPEDFRYILALQEACVVGIADGYAQASRKPAFINLHSAAGTGNAMGALSNAWNSHSPLIVTAGQQTRAMIGVEALLTNVDAANLPRPLVKWSYEPASAAEVPHAMSRAIHMASMAPQGPVYLSVPYDDWDKDADPQSHHLFDRHVSSSVRLNDQDLDILVKALNSASNPAIVLGPDVDAANANADCVMLAERLKAPVWVAPSAPRCPFPTRHPCFRGLMPAGIAAISQLLEGHDVVLVIGAPVFRYHQYDPGQYLKPGTRLISVTCDPLEAARAPMGDAIVADIGAMASALANLVEESSRQLPTAAPEPAKVDQDAGRLHPETVFDTLNDMAPENAIYLNESTSTTAQMWQRLNMRNPGSYYFCAAGGLGFALPAAIGVQLAEPERQVIAVIGDGSANYSISALWTAAQYNIPTIFVIMNNGTYGALRWFAGVLEAENVPGLDVPGIDFRALAKGYGVQALKADNLEQLKGSLQEALSAKGPVLIEVSTVSPVK
**Q.** For B1, which Km is on record?
**A.** The Km was 760 ± 90 µM.
